From patent US20260258115A1
Residue numbers refer to the chain shown, from its start.

B1: ADI-41170 (antibody, V domains shown)
VH: EVQLLESGGGLIQPGGSLRLSCAASGFTFNNYVMSWVRQAPGKGLEWVAAISSSGVSTYYAASVKGRFTISRDNSKNMLYVQLNSLRAEDTAVYYCAKETGSYYYFDSWGQGTLVTVSS
VL: ETTLTQSPSTLSGSVGDRVTITCRASESISSWLAWYQQKPGKAPKLLIYKASNLESGVPSRFSGSGSGTEFTLTISSLQPDDFATYYCQQYNSYLITFGQGTRLEIK
B2: ADI-41163 (antibody, V domains shown)
VH: QVQLVQSGGGVVQPGRSLRLSCAASGFPFHSYAMHWVRQAPGKGLEWVAVIWYEGSEKHYADSVQGRFTISRDNSKNMLYLQMNNLRVADTAVYYCARRGAWGFDIWGQGTTVTVSS
VL: DIVMTQTPLSLPVTPGEPASISCRSSQSVLHSTGYNSLDWYLQKPGQSPQLLIFLGSNRASGVPDRFSGSGSGTDFTLKISRVEAEDVGVYYCMQGLQTPYTFGQGTKVEIK
B3: ADI-41175 (antibody, V domains shown)
VH: EVQLLESGGGVVQPGRSLRLSCATSGFTFSSYGMHWVRQAPGKGLEWVAVIYYEGSNKYYGDSVKGRFTISRDNSKSTLYLQMNRLRAEDTAVYYCARRPAGGFDYWGPGTLVTVSS
VL: B2 VL with D1E, T7S, S28N, V29L, H31N, T33N, S37Y, F54Y, G96A, V109L
B4: ADI-41160 (antibody, V domains shown)
VH: QVQLVQSGAEVKKPGSSVKVSCKASGGTFSSYPIIWVRQAPGQGLEWMGRIIPILGIASYAQKFQGRVTITADKSTSTAYMELSSLRSEDTAVYYCARNSDFYYGMDVWGQGTTVTVSS
VL: QSALIQPASVSGSPGQSITISCTGTSSDVGGYNYVSWYQHHPGKAPKLMIYDVSNRPSGISNRFSGSKSGNTASLTISGLQAEDEADYYCSSYTSSSLYVFGTGTKVTVL
B5: ADI-41173 (antibody, V domains shown)
VH: QVQLVQSGAEMKKPGSSAKVSCKASGGTLSSYAINWVRQAPGQGLEWMGGIIPIFGTTKYAPKFQDRVTITVDESTSTAYMELSSLRSEDTAVYYCSRESSTWDVAHYFDYWGQGTLVTVSS
VL: DIVMTQTPSAISASVGDRVTITCRASQGISNYLAWVQQKPGKVPKRLIYGASSLQSGVPSRFSGSGSGTEFTLTISSLQPEDFATYYCLQHNSYPYTFGQGTKVEIK
B6: ADI-41179 (antibody, V domains shown)
VH: QVQLVQSGAEVKKPGSSVKISCKASGGTFSSHPISWVRQAPGQGLEWMGRIVPIFGIANYAQKFQGRVTMIADKSTNTAYMELSNLRSEDTAVYYCANPVYDSSGFQWGQGTLVTVSS
VL: QPVLTQPRSVSGSPGQSVTISCTGTSGDGGFYNYVSWYQQHPGKTPKLMIYDVDQRPSGVPDRFSGSKSGNTASLTISGLQAEDEADYYCCSYPGNPLYVFGTGTKVTVL
B7: ADI-41181 (antibody, V domains shown)
VH: QVQLVQSGAEVKKPGSSVKVSCKASGGSFSSYTLNWVRQAPGQGLEWMGRFVPIVGIANYAQKFQGRVTITADKSTSTVYMELSSLRSEDTAVYYCATAPTAYCSGDCYSLFDPWGQGTLVTVSS
VL: QSVLIQPASVSGSPGQSITISCTGISSDVGSYNLVSWYQQHPGKAPKLIIYEVNKRPSGVSNRFSGSKSGNTASLTISGLQAEDEADYYCCSYAVSRTSLYVFGTGTKVTVL
B8: ADI-41169 (antibody, V domains shown)
VH: EVQLVESGAEVKKPGESLKISCEAFGYSFTSYWIGWVRQVPGRGLEWIGVIYPGDSDIRYTPSFRGQVTISADRSISTAYLQWNNLKASDTAMYYCARPGRDINYYHSRDYGALDIWGQGTTVTVSS
VL: DIQLTQSPDSLAVSLGERVTINCKSSQSFLYSSNNKNYLAWYQQKPGQPPKLLIYWASVRESGVPDRFSGSGSGTDFTLTISSLQAEDVAVYYCQEYYSPPMFTFGQGTKVEIK
B9: ADI-41166 (antibody, V domains shown)
VH: EVQLVQSGAEVKKPGASVKVSCKTSGYTFTGDYLHWVRQAPGQGLEWMGRLNPKSGGTVYAQRFQGRVTMTGDTSVTTAYMQLTRLRSDDTAIYYCARGIPVSGPVSIDYWGQGTLVTVSS
VL: QSVLTQPASLSGSPGQSITISCTGTSSDVGGYGYVSWYQQHPGKAPKLMIYDVANRPSGVSHRFSGSKSGNTASLTISGLQADDEADYYCSSYTRSNTVVFGGGTKLTVL
B10: ADI-41162 (antibody, V domains shown)
VH: EVQLVQSGAEVKKPGSSVKVSCKASGVTGGTFSSYAISWVRQAPGQGLEWMGGIMPMFGTTNYAQKFQGRVTITADKSTSTAYMELSSLRSEDTAVYYCARDYRDFSPHLDYYYMDVWGKGTTVTVSS
VL: DIRLTQSPGTLSLSPGERATLSCRASQSVSTSYLAWYQQKPGQAPRLLIYGASNRATGIPDRFSGSGSGTDFTLTISRLEPEDFAVYYCQQYGRTSWTFGQGTKVDIK
B11: ADI-41171 (antibody, V domains shown)
VH: EVQLVESGPGLVKPSQTLSLTCTVSGGSISSGGDYWSWVRQRPGKGLEWIGYIYNSGSGYYNPSLKNRVSMSMHTSRNQFSLRLSSVTAADTAFYYCARDPFYRSGGIHYFDYWGQGALVTVSS
VL: DIVLTQTPGTLSLSPGEGATLSCRASPSVGSTSLAWYQQKPGQAPRLLIYGASSRATGIPDRFSGSGSGTDFTLTISRLEPEDFAVYYCQQDGGLPITFGLGTRLEIK
B12: ADI-41161 (antibody, V domains shown)
VH: EVQLVESGGGLVQPGGSLRLSCAASGFTFSTFEFNWVRQAPGKGLEWLSYISSDDTTRYYADSVKGRFTISRDNAKNSLYLQMNSLRAEDTAYYYCVRGGPYDYVWGTYRYFDFWGQGTLVTVSS
VL: QSVLTQPASVSGSPGQSITISCTGTSSDIGGYNYVSWYQQHPGKAPKLMIYDVTNRPLGVSNRFSGSKSGNTASLIISGLQAEDEAEYYCCSYTSSNSLVFGGGTKLTVL
B13: ADI-41155 (antibody, V domains shown)
VH: QVQLQESGPGLVKPSETLSLTCTVSGGSIGNNFYYWGWIRQPPGKGLEWIGSIYYSGTTYDNPSLKSRVTISVEPSKNQFSLKLSSVTAADTAVYHCARRYCDSTRCYEAFDIWGQGTTVTVSS
VL: SYELTQPPSASGTPGQRVTISCSGSSSNIGSNYVSWYQQLPGTAPKLLIYKNDQRPSGVPDRFSGSKSGTSASLAISGLRSEDEAEYYCAAWDDSLSGFYVFGTGTKVTVL
B14: ADI-41154 (antibody, V domains shown)
VH: QVQLQQWGAGLSKPSETLSVTCAVYGGSLSGHYWSWFRQPPGKGLEWIGEIDHSGSTTYNPSLKSRVTISVDTSKNQFSLKLTSVTAADTAMYYCARATRYNYGYTFDYWGQGTLVTVSS
VL: DIPLTQSPSSLSASVGDRVTITCRASQIISSYLNWYQQKPGKAPKLLIYAASTLQSGVPSRFSGSRSGTDFTLTISSLQPEDFASYYCQQSYIIPFTFGPGTKVEIK

The binders below were run against RSV prefusion F (preF), DS-Cav1 (Respiratory Syncytial Virus) (assay: BLI, IgG on anti-human IgG sensor, 100 nM antigen).
In the case of B1, the Kd is reported as 5.67 nM.
B2 gave a Kd of 4.65 nM.
With B3 the Kd was 4.25 nM.
B4 gave a Kd of 2.41 nM.
Binder B5 has a Kd of 0.315 nM.
Work on B6 yielded a Kd of 0.948 nM.
For B7, the Kd was 1.95 nM.
Work on B8 yielded a Kd of 4.94 nM.
Binder B9 has a Kd of 3.15 nM.
For B10, the Kd was 4.06 nM.
For B11, the Kd was 9.8 nM.
For B12, the Kd was 2.54 nM.
Binder B13 has a Kd of 3.52 nM.
Binder B14 has a Kd of 4.63 nM.

These binders were tested against RSV postfusion F (postF), F deltaFP (Respiratory Syncytial Virus) (assay: BLI, IgG on anti-human IgG sensor, 100 nM antigen).
In the case of B1, the Kd is reported as 2.64 nM.
In the case of B2, the Kd is reported as 0.604 nM.
Work on B3 yielded a Kd of 1.07 nM.
With B4 the Kd was 0.337 nM.
Binder B5 has a Kd of 0.294 nM.
B6 showed a Kd of 0.342 nM.
B7 gave a Kd of 0.936 nM.
For B8, the Kd was 1.19 nM.
For B9, the Kd was 0.44 nM.
In the case of B10, the Kd is reported as 0.748 nM.
Work on B11 yielded a Kd of 4.26 nM.
B12 showed a Kd of 0.364 nM.
Work on B13 yielded a Kd of 0.478 nM.
In the case of B14, the Kd is reported as 1.35 nM.

The binders below were run against Respiratory Syncytial Virus fusion glycoprotein (RSV F) on RSV-A2 virus (Respiratory Syncytial Virus subtype A (RSV-A2)) (assay: cell-based or functional assay).
In the case of B1, the Neutralization IC50 (RSV subtype A) is reported as > 25 µg/mL.
With B2 the Neutralization IC50 (RSV subtype A) was > 25 µg/mL.
B3 was tested, and the Neutralization IC50 (RSV subtype A) was > 25 µg/mL.
For B4, the Neutralization IC50 (RSV subtype A) was > 25 µg/mL.
B5 gave a Neutralization IC50 (RSV subtype A) of 0.08 µg/mL.
With B6 the Neutralization IC50 (RSV subtype A) was > 25 µg/mL.
B7 was tested, and the Neutralization IC50 (RSV subtype A) was > 25 µg/mL.
B8 was tested, and the Neutralization IC50 (RSV subtype A) was > 25 µg/mL.
For B9, the Neutralization IC50 (RSV subtype A) was > 25 µg/mL.
B10 was tested, and the Neutralization IC50 (RSV subtype A) was > 25 µg/mL.
In the case of B11, the Neutralization IC50 (RSV subtype A) is reported as > 25 µg/mL.
B12 was tested, and the Neutralization IC50 (RSV subtype A) was > 25 µg/mL.
With B13 the Neutralization IC50 (RSV subtype A) was > 25 µg/mL.
For B14, the Neutralization IC50 (RSV subtype A) was > 25 µg/mL.
